Experimental data: article PMC3642328, “Ataxia Telangiectasia-Mutated (ATM) Kinase Activity Is Regulated by ATP-driven Conformational Changes in the Mre11/Rad50/Nbs1 (MRN) Complex*^([image sbox.jpg])” (The Journal of Biological Chemistry, 2013)
Where “and” joins values, the source holds several entries; their conditions need not be identical. Identical values can stand only once.

B1: Mre11/Rad50(DelCC) complex (Rad50 coiled-coil region replaced with a linker) (complex, human)
chain 1: MSTADALDDENTFKILVATDIHLGFMEKDAVRGNDTFVTLDEILRLAQENEVDFILLGGDLFHENKPSRKTLHTCLELLRKYCMGDRPVQFEILSDQSVNFGFSKFPWVNYQDGNLNISIPVFSIHGNHDDPTGADALCALDILSCAGFVNHFGRSMSVEKIDISPVLLQKGSTKIALYGLGSIPDERLYRMFVNKKVTMLRPKEDENSWFNLFVIHQNRSKHGSTNFIPEQFLDDFIDLVIWGHEHECKIAPTKNEQQLFYISQPGSSVVTSLSPGEAVKKHVGLLRIKGRKMNMHKIPLHTVRQFFMEDIVLANHPDIFNPDNPKVTQAIQSFCLEKIEEMLENAERERLGNSHQPEKPLVRLRVDYSGGFEPFSVLRFSQKFVDRVANPKDIIHFFRHREQKEKTGEEINFGKLITKPSEGTTLRVEDLVKQYFQTAEKNVQLSLLTERGMGEAVQEFVDKEEKDAIEELVKYQLEKTQRFLKERHIDALEDKIDEEVRRFRETRQKNTNEEDDEVREAMTRARALRSQSEESASAFSADDLMSIDLAEQMANDSDDSISAATNKGRGRGRGRRGGRGQNSASRGGSQRGRADTGLETSTRSRNSKTAVSASRNMSIIDAFKSTRQQPSRNVTTKNYSEVIEVDESDVEEDIFPTTSKTDQRWSSTSSSKIMSQSQVSKGVDFESSEDDDDDPFMNTSSLRRNRR
chain 2: MSRIEKMSILGVRSFGIEDKDKQIITFFSPLTILVGPNGAGKTTIIECLKYICTGDFPPGTKGNTFVHDPKVAQETDVRAQIRLQFRDVNGELIAVQRSMVCTQKSKKTEFKTLEGVITRTKHGEKVSLSSKCAEIDREMISSLGVSKAVLNNVIFCHQEDSNWPLSEGKALKQKFDEIFSATRYIKALETLRQVRQTQGQKVKEYQMELKYLKQYPPAAAGGYREMMIVMRTTELVNKDLDIYYKTLDQAIMKFHSMKMEEINKIIRDLWRSTYRGQDIEYIEIRSDADENVSASDKRRNYNYRVVMLKGDTALDMRGRCSAGQKVLASLIIRLALAETFCLNCGIIALDEPTTNLDRENIESLAHALVEIIKSRSQQRNFQLLVITHDEDFVELLGRSEYVEKFYRIKKNIDQCSEIVKCSVSSLGFNVH
notes: wild-type human Mre11 (pTP813), as the Mre11 chain of m2; human Rad50 N terminus, amino acids 1-216; linker peptide between the two Rad50 domains; human Rad50 C terminus, amino acids 1104-1312; The His tag is inferred from the vector name only; also called MR(DelCC); DelCC MR; source: Sf21 insect cells, coexpression with baculovirus (Bac-to-Bac), purified
B2: TP2151/TP2109 (dsDNA)
DNA 1: CTTGCATGCCTCAGCTATTCCGGATTATTCATACCGTCCCA
DNA 2: TGGGACGGTATGAATAATCCGGAATAGCTGAGGCATGCAAGTCTA
B3: Nbs1 (wild-type) (natural protein, human, UniProt O60934 1-754, looked up)
chain: MWKLLPAAGPAGGEPYRLLTGVEYVVGRKNCAILIENDQSISRNHAVLTANFSVTNLSQTDEIPVLTLKDNSKYGTFVNEEKMQNGFSRTLKSGDGITFGVFGSKFRIEYEPLVACSSCLDVSGKTALNQAILQLGGFTVNNWTEECTHLVMVSVKVTIKTICALICGRPIVKPEYFTEFLKAVESKKQPPQIESFYPPLDEPSIGSKNVDLSGRQERKQIFKGKTFIFLNAKQHKKLSSAVVFGGGEARLITEENEEEHNFFLAPGTCVVDTGITNSQTLIPDCQKKWIQSIMDMLQRQGLRPIPEAEIGLAVIFMTTKNYCDPQGHPSTGLKTTTPGPSLSQGVSVDEKLMPSAPVNTTTYVADTESEQADTWDLSERPKEIKVSKMEQKFRMLSQDAPTVKESCKTSSNNNSMVSNTLAKMRIPNYQLSPTKLPSINKSKDRASQQQQTNSIRNYFQPSTKKRERDEENQEMSSCKSARIETSCSLLEQTQPATPSLWKNKEQHLSENEPVDTNSDNNLFTDTDLKSIVKNSASKSHAAEKLRSNKKREMDDVAIEDEVLEQLFKDTKPELEIDVKVQKQEEDVNVRKRPRMDIETNDTFSDEAVPESSKISQENEIGKKRELKEDSLWSAKEISNNDKLQDDSEMLPKKLLLTEFRSLVIKNSTSRNPSGINDDYGQLKNFKKFKKVTYPGAGKLPHIIGGSDLIAHHARKNTELEEWLRQEMEVQNQHAKEESLADDLFRYNPYLKRRR
notes: wild-type Nbs1, component of the human MRN complex; expressed from transfer vector pTP288 / bacmid pTP291; Used apart from MR (added to MR complexes, coated on PMMA beads); source: Sf21 insect cells, baculovirus, purified

Assays:
ATM = molecular target: T1, ATM (Homo sapiens, UniProt Q13315, Y2755A); assay: kinase assay, GST-p53 Ser-15 phosphorylation, Western blot; assay type: biochemical; conditions: H2O2-activated ATM without MRN; analog 1 mM; pH 7.5, 5 mM Mg, 30 C
T1 construct: full-length, Flag-tagged and HA-tagged, transiently expressed in human 293T cells, purified as dimer

[1] = molecular target: Mre11/Rad50 (MR) complex, wild-type full-length (human) (UniProt P49959); assay: scanning force microscopy (SFM); protein alone: 3 nM human MR in 25 mM Tris-HCl pH 8.0, 10% glycerol, 100 mM NaCl, 1 mM DTT; diluted 5-fold in 10 mM HEPES pH 8.0, 20 mM MgCl2, deposited on mica, imaged in air by tapping mode; forms counted by the number of Rad50 coiled-coils
Nbs1 (wild-type) [2] = molecular target: B3; assay: KinExA (kinetic exclusion assay); without ATP; 1, 5 and 25 nM MR incubated with 6.1 pM to 400 nM Nbs1 (2-fold dilutions) 1 h at room temperature; free MR captured on Nbs1-coated PMMA beads, detected with anti-Mre11 and Cy5 secondary antibody; PBS; n-Curve Analysis; conditions: both partners purified
Nbs1 (wild-type) [3] = molecular target: B3; assay: KinExA (kinetic exclusion assay); in the presence of ATP (concentration not stated); 1, 5 and 25 nM MR incubated with 6.1 pM to 400 nM Nbs1 (2-fold dilutions) 1 h at room temperature; free MR captured on Nbs1-coated PMMA beads, detected with anti-Mre11 and Cy5 secondary antibody; PBS; n-Curve Analysis; conditions: both partners purified
[4] = molecular target: Mre11/Rad50/Nbs1 (MRN) wild-type (human, UniProt P49959;Q92878;O60934 1-708;1-1312;1-754); assay: EMSA; 0.5 mM AMP-PNP, 5 mM MgCl2, Nbs1 present, 100-200 nM MR; EMSA (Fig. 6A): 10 nM DNA, 25 mM MOPS pH 7.0, 20 mM Tris pH 8.0, 5 mM MgCl2, 8% glycerol, 80 mM NaCl, 2 mM DTT, 0.5 mM AMP-PNP, temperature not stated; SFM: 25; conditions: protein: recombinant; chain copies: 2;2;2; label: Cy5 at 3' end of TP2109; 41 bp duplex, 4 nt 3' overhang on strand 2, other end blunt
MR(C2G)N = MR(C2G)N (human, UniProt P49959;Q92878;O60934 1-708;1-1312;1-754, C681G;C684G;Rad50); assay: EMSA; 0.5 mM AMP-PNP, 5 mM MgCl2, Nbs1 present; altered mobility and complex formation efficiency vs WT; EMSA (Fig. 6A): 10 nM DNA, 25 mM MOPS pH 7.0, 20 mM Tris pH 8.0, 5 mM MgCl2, 8% glycerol, 80 mM NaCl, 2 mM DTT, 0.5 mM AMP-PNP, temperature not stated; SFM: 25; conditions: protein: recombinant; chain copies: 2;2;1; label: Cy5 at 3' end of TP2109; 41 bp duplex, 4 nt 3' overhang on strand 2, other end blunt
[5] = molecular target: T2, Mre11/Rad50 (MR) complex, wild-type full-length (human, UniProt P49959 1-708; Q92878 1-1312); assay: KinExA (kinetic exclusion assay); without ATP; 1, 5 and 25 nM MR incubated with 6.1 pM to 400 nM Nbs1 (2-fold dilutions) 1 h at room temperature; free MR captured on Nbs1-coated PMMA beads, detected with anti-Mre11 and Cy5 secondary antibody; PBS; n-Curve Analysis; conditions: both partners purified
T2 construct: wild-type human Mre11, transfer vector pTP813 / bacmid pTP814; wild-type human Rad50, transfer vector pTP11; 1312 residues by the printed construct limits; The unit written here is one Mre11 with one Rad50; also called wild-type MR; human MR; source: Sf21 insect cells, coexpression with baculovirus, purified

[6] = molecular target: T2, Mre11/Rad50 (MR) complex, wild-type …; assay: KinExA (kinetic exclusion assay); in the presence of ATP (concentration not stated); 1, 5 and 25 nM MR incubated with 6.1 pM to 400 nM Nbs1 (2-fold dilutions) 1 h at room temperature; free MR captured on Nbs1-coated PMMA beads, detected with anti-Mre11 and Cy5 secondary antibody; PBS; n-Curve Analysis; conditions: both partners purified
[7] = molecular target: T3, Mre11/Rad50(C2G) complex (Rad50 C681G/C684G) (human, UniProt P49959 1-708; Q92878 1-1312, C681G | C684G); assay: as above; conditions: both partners purified
T3 construct: wild-type human Mre11 (pTP813), as the Mre11 chain of m2; human Rad50 with both zinc hook cysteines mutated; made by QuikChange mutagenesis from pTP11 (the wild-type Rad50 of m2); Zinc hook mutant; also called MR(C2G); C2G MR complex; source: Sf21 insect cells, coexpression with baculovirus, purified

[8] = molecular target: T4, Mre11/Rad50(C2G) complex (Rad50 C681G/C684G) (human, UniProt P49959 1-708; Q92878 1-1312, C681G | C684G); assay: -ATP
[9] = molecular target: T4, Mre11/Rad50(C2G) complex (Rad50 …; assay: +ATP

T1 sequence (Q13315 2-3056 Y2755A): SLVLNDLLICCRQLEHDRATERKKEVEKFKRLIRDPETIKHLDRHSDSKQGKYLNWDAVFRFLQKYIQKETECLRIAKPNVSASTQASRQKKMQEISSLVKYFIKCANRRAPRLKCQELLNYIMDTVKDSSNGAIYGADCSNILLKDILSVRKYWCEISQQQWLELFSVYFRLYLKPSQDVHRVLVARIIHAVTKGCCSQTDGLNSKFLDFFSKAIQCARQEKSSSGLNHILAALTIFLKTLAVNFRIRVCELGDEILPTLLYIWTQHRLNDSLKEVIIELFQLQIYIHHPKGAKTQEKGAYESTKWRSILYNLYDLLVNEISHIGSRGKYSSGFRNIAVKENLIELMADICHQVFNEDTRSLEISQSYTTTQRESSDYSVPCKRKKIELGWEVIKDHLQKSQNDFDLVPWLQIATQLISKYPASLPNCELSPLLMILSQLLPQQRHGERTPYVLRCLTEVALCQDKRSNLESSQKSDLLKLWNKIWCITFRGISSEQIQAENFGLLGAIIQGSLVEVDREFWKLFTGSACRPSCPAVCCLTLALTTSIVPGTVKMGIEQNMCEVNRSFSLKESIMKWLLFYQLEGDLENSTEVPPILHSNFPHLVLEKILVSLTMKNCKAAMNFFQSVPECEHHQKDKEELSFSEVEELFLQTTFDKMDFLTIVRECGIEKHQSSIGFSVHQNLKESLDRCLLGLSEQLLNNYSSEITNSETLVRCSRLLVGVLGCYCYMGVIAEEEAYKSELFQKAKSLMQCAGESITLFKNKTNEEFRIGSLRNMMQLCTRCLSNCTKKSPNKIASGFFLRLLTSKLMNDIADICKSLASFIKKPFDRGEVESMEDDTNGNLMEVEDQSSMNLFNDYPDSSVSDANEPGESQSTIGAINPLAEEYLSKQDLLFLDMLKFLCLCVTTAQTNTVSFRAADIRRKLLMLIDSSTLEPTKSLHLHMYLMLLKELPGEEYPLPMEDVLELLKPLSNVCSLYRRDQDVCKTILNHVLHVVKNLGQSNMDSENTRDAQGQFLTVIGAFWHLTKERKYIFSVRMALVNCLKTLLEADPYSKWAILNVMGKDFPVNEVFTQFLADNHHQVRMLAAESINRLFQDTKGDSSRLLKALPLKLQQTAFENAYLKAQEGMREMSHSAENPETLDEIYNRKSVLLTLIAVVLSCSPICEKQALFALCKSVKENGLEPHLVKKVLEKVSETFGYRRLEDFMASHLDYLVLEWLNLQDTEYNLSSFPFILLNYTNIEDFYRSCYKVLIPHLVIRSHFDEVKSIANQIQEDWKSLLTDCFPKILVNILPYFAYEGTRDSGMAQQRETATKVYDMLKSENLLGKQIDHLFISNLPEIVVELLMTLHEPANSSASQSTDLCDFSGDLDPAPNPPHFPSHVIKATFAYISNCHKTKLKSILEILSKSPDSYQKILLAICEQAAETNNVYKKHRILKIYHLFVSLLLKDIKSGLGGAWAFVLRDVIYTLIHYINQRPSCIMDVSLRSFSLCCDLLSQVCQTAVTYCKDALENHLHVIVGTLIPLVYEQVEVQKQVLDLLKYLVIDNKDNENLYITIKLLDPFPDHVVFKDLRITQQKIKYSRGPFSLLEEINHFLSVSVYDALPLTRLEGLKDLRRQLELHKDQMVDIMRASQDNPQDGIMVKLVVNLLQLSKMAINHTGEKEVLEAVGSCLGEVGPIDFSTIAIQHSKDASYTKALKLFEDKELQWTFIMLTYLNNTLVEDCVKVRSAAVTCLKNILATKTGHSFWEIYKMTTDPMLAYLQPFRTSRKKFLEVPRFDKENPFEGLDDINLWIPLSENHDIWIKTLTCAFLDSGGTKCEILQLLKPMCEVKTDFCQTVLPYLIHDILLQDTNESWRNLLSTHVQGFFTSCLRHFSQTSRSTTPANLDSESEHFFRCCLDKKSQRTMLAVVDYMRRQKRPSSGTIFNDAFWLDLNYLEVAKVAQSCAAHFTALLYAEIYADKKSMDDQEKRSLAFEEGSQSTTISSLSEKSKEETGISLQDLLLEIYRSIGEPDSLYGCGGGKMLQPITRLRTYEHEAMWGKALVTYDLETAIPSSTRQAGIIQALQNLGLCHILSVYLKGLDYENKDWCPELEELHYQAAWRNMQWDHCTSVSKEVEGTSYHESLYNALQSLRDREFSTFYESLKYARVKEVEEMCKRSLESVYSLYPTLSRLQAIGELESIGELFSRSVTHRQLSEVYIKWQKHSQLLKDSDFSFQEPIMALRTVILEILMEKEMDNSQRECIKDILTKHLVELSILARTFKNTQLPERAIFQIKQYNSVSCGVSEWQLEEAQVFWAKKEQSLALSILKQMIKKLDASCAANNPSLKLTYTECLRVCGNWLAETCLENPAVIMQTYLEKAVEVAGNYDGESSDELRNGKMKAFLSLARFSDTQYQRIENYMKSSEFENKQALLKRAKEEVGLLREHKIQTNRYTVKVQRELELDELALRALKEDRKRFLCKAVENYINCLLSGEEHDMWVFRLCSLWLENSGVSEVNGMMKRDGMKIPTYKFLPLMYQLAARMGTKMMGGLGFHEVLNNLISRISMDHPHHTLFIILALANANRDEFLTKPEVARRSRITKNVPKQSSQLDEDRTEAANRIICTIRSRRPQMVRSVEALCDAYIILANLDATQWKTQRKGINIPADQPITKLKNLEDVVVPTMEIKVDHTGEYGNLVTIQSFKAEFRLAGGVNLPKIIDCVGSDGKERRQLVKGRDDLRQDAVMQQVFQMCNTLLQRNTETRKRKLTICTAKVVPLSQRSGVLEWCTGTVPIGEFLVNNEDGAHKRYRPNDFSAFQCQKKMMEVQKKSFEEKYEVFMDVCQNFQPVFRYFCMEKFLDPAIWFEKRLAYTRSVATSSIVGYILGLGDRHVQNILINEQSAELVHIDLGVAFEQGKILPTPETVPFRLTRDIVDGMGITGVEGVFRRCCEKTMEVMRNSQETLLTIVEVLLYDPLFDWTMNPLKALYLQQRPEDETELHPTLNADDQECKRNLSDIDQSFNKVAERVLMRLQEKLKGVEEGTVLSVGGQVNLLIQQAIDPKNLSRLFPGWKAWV

Molecule: O=P(O)(O)OP(=O)(O)OP(=O)(O)OC[C@H]1O[C@@H](n2cnc3c(NCc4ccco4)ncnc32)[C@H](O)[C@@H]1O [N6-(furfuryl)-ATP, N6-furfuryladenosine-5′-O-triphosphate]
- kinase assay, GST-p53 Ser-15 phosphorylation, Western blot (ATM): This nucleotide was utilized by Y2755A ATM but not by wild-type ATM

Molecule: Mre11/Rad50 (MR) complex, wild-type full-length, P49959 1-708; Q92878 1-1312
- stoichiometry N [1]: 2 and > 4

Molecule: B1
- Kd (Nbs1 (wild-type) [2]): 17.7 nM
- Kd (Nbs1 (wild-type) [3]): 0.0503 nM

Molecule: B2
- binding result [4]: binds
- binding result (MR(C2G)N): binds

Molecule: B3
- Kd [5]: 0.00917 nM
- Kd [6]: 0.00382 nM
- fold higher affinity in the presence of ATP than in the absence of ATP [7]: ~70 fold
- Kd [8]: 7.3 nM
- Kd [9]: 0.11 nM
